Laboratory results reported in the DeepSol protein solubility set.

Assay: soluble on expression in E. coli; label from the status in PepcDB or PDB records

Sequence | soluble on expression in E. coli
DPQSVETALNVAREGLVLLKNENNILPINPQKYKHIIVTGKNAHGYVHGGGSGAVVPFHYTNLFDGIQKEGKLNNVKVEYIDELDFMPSIMYTDDNLNEKGFHAEYFKNIHFEGAPVVKQTEKKINYSWAAGTELEGMPKDYFSVKWYSTMCVDETADYEFTLGGDDGYKLFINDQPIIDDWTPGGFRTTNVTKTLKAGEKYHVRVEYYQQGGGAGICFLWKRKNETQNKFADYLNKADLVIACFGHSSDTEGEASDRTFELPEVDKKMLASLSGCKKPVIGIVNAGGNIEMQKWEPSLKGLIWGFYGGQEAGTAIGEALFGKVNPSGKLPMTFEKKWEDSPAYNSYHDPDKDKHVAYTEGIFIGYRGYDKLKREVQYPFGYGLSYTTF | not soluble
DTVIAMDAYTPHDVTTQAQQLIDATPTAPALAPMTWPTPRVAARVRTQRDQRGRAPKPPRARGIDTIQHGRDDIDLRAISQLACTSQTQAIARIIATLEKRVDDHTPMITLVNDVLAEIETHGWAALSGQRAGSHAERHPGRVAMPRPQEVMAALNRYRGLSLVGSLDA | not soluble
DVKLVQSGPGLVAPSQSLSITCTVSGFSLTTYGVSWVRQPPGKGLEWLGVIWGDGNTTYHSALISRLSISKDNSRSQVFLKLNSLHTDDTATYYCAGNYYGMDYWGQGTSVTVSSAETTAPSVYKLEPVSSVTLGCLVKGYFPEPVTLTWNSGSLSSGVHTFPAVLQSDLYTLSSSVTVTSSTWPSQSITCNVAHPASSTKVDKKIEPRG | soluble
EDYEKVPLPNSVFVNTTESCEVERLFKATSPRGEPQDGLYCIRNSSTKSGKVLVVWDETSNKVRNYRIFEKDSKFYLEGEVLFVSVGSMVEHYHTHVLPSHQSLLLRHPYGYT | soluble
EEAKEGVPKVAYISLSPPFVGNYALDGSPRLRVYKADVALRVTGDEAAKTVKHHEPLIRNQLVALFTQQTVDSMSNVEAKEHLRQEALKQVQQVLEAEEGKPIVEDLLFNNLIVQ | not soluble
EFRKLGEVCEILDNRRIPIAKNKRNPGIYPYYGANGIQDYIDSYIFDGDFVLVGEDGSVINKDNTPVVNWASGKIWVNNHAHVLQTKNELKLKFLYFYLQTIDVSYCVAGTPPKINQENLKKIAIPIPPLEIQQEIVKILDQFSI | not soluble
EGELRLGERVLVVGQRLGTIRFFGTTNFAPGYWYGIELEKPHGKNDGSVGGVQYFSCSPRYGIFAPPSRVQRVTDSLDTLSEI | soluble
EIVHLGLEDNDFDNDINPLETTGAYLSPKEFKEALLDKDTVVLDTRNDYEYDLGHFRGAIRPDIRNFRELPQWVRDNKEKFMDKRVVVYCTGGVRCEKFSGWMVREGYKDVGQLHGGIATYGKDPEVQGELWDGKMYVFDERIAVDVNHVNPTIVGKDWFDGTPCER | not soluble
EKEKKNVFMRTFEAISRNFSEIFAKLSPGGSARLILENPEDPFSGGLEIEAKPAGKDVKRIEAMSGGEKALTALAFVFAIQKFKPAPFYLFDEIDAHLDDANVKRVADLIKESSKESQFIVITLRDVMMANADKIIGVSMRDGVSKVVSLSLEKAMKILEEIRKKQGWEHGN | soluble
ELNNLRMTYERLRELSLNLGNRMVPPVGNFMPDSILKKMAAILPMNDSAFATLGTVEDKYRRRFKYFKATIADLSKKRSSE | soluble
ELSGDDQGDEEEDDHAYEGVPNGGWHTSSLSLSLPSTIAAPHPMDGPPGGSTPVTPVIKAGWLDKNPPQGSYIYQKRWVRLDTDHLRYFDSNKDAYSKRFISVACISHVAAIGDQKFEVITNNRTFAFRAESDVERKEWMQALQQAMAEQRARARLSSAYLLGVPGSEQPDRAGSLELRGFKNKLYVAVVGDKVQLYKNLEEYHLGIGITFIDMSVGNVKEVDRRSFDLTTPYRIFSFSADSELEKEQWLEAMQGAIAEALSTSEVAERIWAAAPNRFCADCGAPQPDWASINLCVVICKRCAGEHRGLGAGVSKVRSLKMDRKVWTETLIELFLQLGNGAGNRFWAANVPPSEALQPSSSPSTRRCHLEAKYREGKYRRYHPLFGNQEELDKALCAAVTTTDLAETQALLGCGAGINCFSGDPEAPTPLALAEQAGQTLQMEFLRNNRTTEVPRLDSMKPLEKHYSVVLPTVSHSGFLYKTASAGKLLQDRRAREEFSRRWCVLGDGVLSYFENERAVTPNGEIRASEIVCLAVPPPDTHGFEHTFEVYTEGERLYLFGLESAEQAHEWVKCIAKAFVPPLAEDLLARDFERLGRLPYKAGLSLQRAQEGWFSLSGSELRAVFPEGPCEEPLQLRKLQELSIQGDSENQVLVLVERRRTLYIQGERRLDFMGWLGAIQKAAASMGDTLSEQQLGDSDIPVIVYRCVDYITQCGLTSEGIYRKCGQTSKTQRLLESLRQDARSVHLKEGEQHVDDVSSALKRFLRDLPDGLFTRAQRLTWLEASEIEDEEEKVSRYRELLVRLPPVNRATVKALISHLYCVQCFSDTNQMNVHNLAIVFGPTLFQTDGQDYKAGRVVEDLINHYVVVFSVDEEELRKQREEITAIVKMRVAGTASGTQHAGDFICTVYLEEKKAETEQHIKVPASMTAEELTLEILDRRNVGIREKDYWTCFEVNEREEAERPLHFAEKVLPILHGLGTDSHLVVKKHQAMEAMLLYLASRVGDTKHGMMKFREDRSLLGLGLPSGGFHDRYFILNSSCLRLYKEVRSQRPWSGAPETSHRPEKEWPIKSLKVYLGVKKKLRPPTCWGFTVVHETEKHEKQQWYLCCDTQMELREWFATFLFVQHDGLVWPSEPSRVSRAVPEVRLGSVSLIPLRGSENEMRRSVAAFTADPLSLLRNV | soluble
EMFYFEPVNIKKYLGSIGSELSDEVITIEQFFNLNSEYITIIDARSPREFSEKTISNAVNIPLFLTEEYETIGKLYKHEGKEVAIAKAGIIIQDGIKRIVSESLKLDPNKNLVVFCARGGMRSQSIATILKLLGFKVKRLVGGFKSYNISKT | not soluble
EMLYRSVDNRDIPQAMPKTIQALAHWDYQGLPDSEVVEAFSVELLALYETKALPKIANRMNIEVSGMRSLMMKTGRKLSRLEVLPTSIKELSRLDKRWADAKHWVAFKNLSGAITVNHYLAALDMQVNEMGEIEAQPEKRQIYVDLFFKT | not soluble
ENHEKEWRFNSRITLVRSPIMLGQQTSHGWRDLIFDVSGGGATPAKHVMQYTGVSYPLNPSMAPTATPEQISGVRLFSDGISPVREGVRL | not soluble
ENSVFFGKKKKVSLHLLVDPDMKDEIIKYAQEKDFDNVSQAGREILKKGLEQIA | soluble
ERTRAEQKLAETNVFLNSVVDGVAEPMVVVGLDRRVIMTNRAARDFFQISDVGSDEACHRLIHHRDTPCVREEGMQCPLLDVRTAKRPVIATQEHRDRSGDKRVVEVMTSPLLGSDGVAIGIIEAFRDIT | not soluble
ESIQRPTPINQVFPDPGLANAVKQNLGKQSVTDLVSQKELSGVQNFNGDNSNIQSLAGMQFFTNLKELHLSHNQISDLSPLKDLTKLEELSVNRNRLKNLNGIPSACLSRLFLDNNELRDTDSLIHLKNLEILSIRNNKLKSIVMLGFLSKLEVLDLHGNEITNTGGLTRLKKVNWIDLTGQKCVNEPVKYQPELYITNTVKDPDGRWISPYYISNGGSYVDGCVLWELPVYTDEVSYKFSEYINVGETEAIFDGTVTQPIKN | soluble
ESLCPQHHEALSLFCYEDQEAVCLICAISHTHRAHTVVPL | soluble
ETIELYKSSVPSGKEAGKNALAITNQQLISALENAAKDNKTSQPQARSLTASDQVQITQSSDKVIGYITTSNLDIDNNNTFDVGKLNGDKSTSKIIVNATLKTLNKINTLQSEEGIILPHPQKYKSTDPQAVATVQGPSIIGVHANAKENAETQKFINW | not soluble
EVKLLESGGGLAQPGGSLKLSCAASGFDFRRYWMTWVRQAPGKGLEWIGEINPDSRTINYMPSLKDKFIISRDNAKNSLYLQLSRLRSEDSALYYCVRLDFDVYNHYYVLDYWGQGTSVTVSSASTKGPSVFPLAPSSKSTSGGTAALGCLVKDYFPEPVTVSWNSGALTSGVHTFPAVLQSSGLYSLSSVVTVPSSSLGTQTYICNVNHKPSNTKVDKKVEPKSCD | soluble
EVKLVESGGGLVLPGGSLRLSCATSGFTFTDYYMTWVRQPPGKALEWLGFIGNKANDYTTEYSASVKGRFTISRDDSQSILYLQMSTLRAEDRATYYCATVYGNYPYFDVWGVGTTVAVSSATTTAPSVYPLVPGCSDTSGSSVTLGCLVKGYFPEPVTVKWNYGALSSGVRTVSSVLQSGFYSLSSLVTVPSSTWPSQTVICNVAHPASKVDLIKEISGP | soluble
EVQLQQSGPELVKPGSSVKISCKASRNTFTDYNLDWVKQSHGKTLEWIGNVYPNNGVTGYNQKFRGKATLTVDKSSSTAYMELHSLTSEDSAVYYCALYYYDVSYWGQGTLVTVSSAKTTPPSVYPLAPGSAAQTNSVTLGCLVKGYFPEPVTVTWNSGSLSSGVHTFPAVLQSDLYTLSSSVTVPSSTWPSQSVTCNVAHPASSTAVDKKIAPA | soluble
EVQLVQSGAEVKKPGSSVKVSCKASGGTFSNYAINWVRQAPGQGLEWMGGIIPIFNIAHYAQRFQGRVSITADESTSTAYMELSSLRSEDTAVFYCASPYPNDYNDYAPEEGMSWYFDLWGRGTLVTVSPASTKGPSVFPLAPSSKSTSGGTAALGCLVKDYFPEPVTVSWNSGALTSGVHTFPAVLQSSGLYSLSSVVTVPSSSLGTQTYICNVNHKPSNTKVDKKVEPK | soluble
FDISVLSVAPLRQGETMKQGIDSAVSLAKAVDNMGYKRIWFAEHHNHDAYASAATVSIVQHILANTKDIRVGSGGIMLPNHSPLIVAEQFGTLETLYPNRVDLALGRAPGTDQKTADVIRRSNHNGVFFFEREVNDILRFVGDKSVQGEVRAYPGIGTHVPVFVLGSSTDSAEIAAKLGLPYAFGAQFSPHSMEEALSIYRENFQPSSYLQEPYVIACINVIAAESIDEASFISASHLQVYIDIYTNNLSKLIPPTENFLESLSQFELEILHSRLGYTIMGDRETIRRELIDFQQMYHADELIVLSNIYELSKEIQSYEILKQVVDELFKKRM | not soluble
FHSVLIANVNSGLGELASDADLTQVKGKTLTFGSESSTSGRLMPQYYLEQAGVSLEDFQGEVGFSASHDATIQLVEAGTYDLGMLNEQVWNSRVEAGEVDTNRVNVIWRSPAYYDYHWVISPDVDERYGEG | not soluble
FISDLHLEAERPDITRAFLSFLDERARRAEALYILGDFFEAWIGDDGMDAFQRSIAQSLRQVADGGTRIYLMHGNRDFLIGKAFCREAGCTLLPDPSVIDLYGEPVLLMHGDSLCTRDEAYMRLRRWLRNPLTLWVLRHLPLATRHKLARKLRKESRAQTRMKAVDIIDVTPEEVPRVMRGHGVRTLIHGHTHRPAEHPLDIDGQPARRIVLGDWDRQGWALEIDANGHR | not soluble
FLSDGKEIIAEKDEAIRETVKLLEEGHILAIKGIGGTHLACKVGEDDVVLELRKRLGRPTQPFAVMSKIEYTELFAEFDEDEKNALLSLRRPIVVLKKSQDYDKYFSKYVSNLDTIGVMFPYSGLHYLLFDKEIAYVMTSANLPGLPMVKDNDEILKKLNGIADYFLLHNRRIVNRCDDSVVKKVADRLVFLRRSRGFAPEPVKV | not soluble
FNLKTPGREDDASSESGDNAEAERAPAFIRALGGAANLEVVDACTTRLRLRLVDRNKASDAQLKALGAMAVVRPGKAGSLQVVVGPQADSIADEIRRALPFDTQPGEAVPPLGSPHTAEEVVAMQATVDAAEAQAWLGALGGAGNLREVRDVALTRLRVSVADERKLATEQLRRLGGQGVSSLAGGICHILVGPRAAALSQALQPLLR | not soluble
